The values below come from patent publication US20100015637A1 (AbbVie / Abbott, published 2010).

Where only a bound is given, the exact number is not on record here.

The target in assay [1] is recombinant human PlGF-1 (comprising amino acids 1-131) expressed in E. coli (R&D Systems) (human) (UniProt P49763). The assay can be described thus: EIA of 24 well cultures, antibody captured on anti-mouse IgG Fc, biotin labeled human PlGF-1.
For assay [2] the target is unchanged. The assay can be described thus: EIA, supernatant antibody captured on anti-mouse IgG Fc, biotin labeled human PlGF-1 at 1500 pg/mL.
Assay [3] shares this target. Put plainly: EIA of clone supernatants, antibody captured on anti-mouse IgG Fc, biotin labeled human PlGF-1.
Assay [4] addresses T1, human PlGF-1 (as used in Example 13; source not specified) (human) (UniProt P49763).
T1 sequence: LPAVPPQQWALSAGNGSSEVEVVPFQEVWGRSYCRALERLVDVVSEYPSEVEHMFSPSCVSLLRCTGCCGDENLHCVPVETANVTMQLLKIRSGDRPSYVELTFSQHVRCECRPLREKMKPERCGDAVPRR
The assay can be described thus: … PlGF-1 assay; added sFlt-1 186 pM; 27.1 pM PlGF-1 without sFlt-1.

The target in assay [5] is T1, human PlGF-1 (as used in Example 13; source not specified) (human). Put plainly: … PlGF-1 assay after 16 h incubation of PlGF-1 with sFlt-1 (data not shown).
Assay [6] has the same target. Put plainly: … PlGF-1 assay; added sFlt-1 186 pM; 13.3 pM PlGF-1 without sFlt-1.
Assay [7] has the same target. Put plainly: … PlGF-1 assay; added sFlt-1 93 pM; 3.6 pM PlGF-1 without sFlt-1.
The target is the same in assay [8]. Put plainly: … PlGF-1 assay; added sFlt-1 186 pM; 3.6 pM PlGF-1 without sFlt-1.
For assay [9] the target is unchanged. The assay can be described thus: … PlGF-1 assay; added sFlt-1 389 pM; 40.5 pM PlGF-1 without sFlt-1.
The target is the same in assay [10]. Put plainly: … PlGF-1 assay; added sFlt-1 186 pM; 40.5 pM PlGF-1 without sFlt-1.
Assay [11] shares this target. Put plainly: … PlGF-1 assay after 16 h incubation of PlGF-1 with sFlt-1 up to 12 nM (data not shown).
Assay [12] has the same target. Put plainly: … PlGF-1 assay; added sFlt-1 93 pM; 40.5 pM PlGF-1 without sFlt-1.
Assay [13] has the same target. The assay can be described thus: … PlGF-1 assay; added sFlt-1 788 pM; 3.6 pM PlGF-1 without sFlt-1.
Assay [14] has the same target. The assay can be described thus: … PlGF-1 assay; added sFlt-1 389 pM; 6.8 pM PlGF-1 without sFlt-1.
For assay [15] the target is unchanged. Put plainly: … PlGF-1 assay; added sFlt-1 788 pM; 27.1 pM PlGF-1 without sFlt-1.
The target is the same in assay [16]. Put plainly: … PlGF-1 assay; added sFlt-1 1,181 pM; 27.1 pM PlGF-1 without sFlt-1.
Assay [17] has the same target. The assay can be described thus: … PlGF-1 assay; added sFlt-1 1,181 pM; 3.6 pM PlGF-1 without sFlt-1.
Assay [18] has the same target. Put plainly: … PlGF-1 assay; added sFlt-1 389 pM; 27.1 pM PlGF-1 without sFlt-1.
Assay [19] shares this target. Put plainly: … PlGF-1 assay; added sFlt-1 389 pM; 13.3 pM PlGF-1 without sFlt-1.
Assay [20] shares this target. Put plainly: … PlGF-1 assay; added sFlt-1 1,181 pM; 13.3 pM PlGF-1 without sFlt-1.
The target is the same in assay [21]. The assay can be described thus: … PlGF-1 assay; added sFlt-1 1,181 pM; 6.8 pM PlGF-1 without sFlt-1.
Assay [22] has the same target. The assay can be described thus: … PlGF-1 assay; added sFlt-1 788 pM; 6.8 pM PlGF-1 without sFlt-1.
The target is the same in assay [23]. The assay can be described thus: … PlGF-1 assay; added sFlt-1 186 pM; 6.8 pM PlGF-1 without sFlt-1.
Assay [24] has the same target. Put plainly: … PlGF-1 assay; added sFlt-1 389 pM; 3.6 pM PlGF-1 without sFlt-1.
For assay [25] the target is unchanged. The assay can be described thus: … PlGF-1 assay; added sFlt-1 1,181 pM; 40.5 pM PlGF-1 without sFlt-1.
Assay [26] has the same target. Put plainly: … PlGF-1 assay; added sFlt-1 93 pM; 27.1 pM PlGF-1 without sFlt-1.
For assay [27] the target is unchanged. The assay can be described thus: … PlGF-1 assay; added sFlt-1 788 pM; 40.5 pM PlGF-1 without sFlt-1.
Assay [28] shares this target. Put plainly: … PlGF-1 assay; added sFlt-1 93 pM; 6.8 pM PlGF-1 without sFlt-1.
The target is the same in assay [29]. The assay can be described thus: … PlGF-1 assay; added sFlt-1 788 pM; 13.3 pM PlGF-1 without sFlt-1.
Assay [30] has the same target. Put plainly: … PlGF-1 assay; added sFlt-1 93 pM; 13.3 pM PlGF-1 without sFlt-1.

B1: anti-human PlGF-1 monoclonal antibody from clone 2-826-127 (antibody, V domains shown)
VH: QVQLKQSGPGLVQPSQSLSITCTVSGFSLTTYGIHWVRQSPGKGLEWLGVMWSGGDTDYDAAFISRLSISKDNSKSQVFFKMNSLQANDTGIYYCARYRFYGMDYWGQGTSVTVSS
VL: AIQMTQSSSSFSVSLGDRVTITCKASEDIYNRFAWYQQKPGNAPRLLISGAASLEAGVPSRFSGSGSGQDYTLSITSLQTEDVATYYCQQYWSTPWTFGGGTKLEIKR
In the case of B1, the EIA signal relative to background (fold over background) in assay [1], in assay [2] and in assay [3] was above 3 each time.

B2: sFlt-1 (as used in Example 13; preparation not specified) (receptor, not shown: a dimerising Fc or GST; small tags and cut ends)
chain: SKLKDPELSLKGTQHIMQAGQTLHLQCRGEAAHKWSLPEMVSKESERLSITKSACGRNGKQFCSTLTLNTAQANHTGFYSCKYLAVPTSKKKETESAIYIFISDTGRPFVEMYSEIPEIIHMTEGRELVIPCRVTSPNITVTLKKFPLDTLIPDGKRIIWDSRKGFIISNATYKEIGLLTCEATVNGHLYKTNYLTHRQTNTIIDVQISTPRPVKLLRGHTLVLNCTATTPLNTRVQMTWSYPDEKNKRASVRRRIDQSNSHANIFYSVLTIDKMQNKDKGLYTCRVRSGPSFKSVNTSVHI
modifications: glycosylated; the chimera is dimerised through its Fc, if that preparation was the one used
Regarding B2, the Measured Human PlGF-1 was 10.6 pM in assay [4]; 4.9 pM in [6]; 1.5 pM in [7]; 1.2 pM in assay [8]; 12.2 pM in assay [9]; 17.8 pM in [10]. In addition, the Measured Human PlGF-1 in assay [12] was 25.9 pM; in assay [13] it was 1.2 pM; in [14], 2 pM; in [15] it was 6.1 pM; in assay [16], 5.4 pM; in assay [17], 1.3 pM. The Measured Human PlGF-1 in assay [18] came to 7.5 pM; in assay [19], 3.8 pM; in [20], 3 pM; in assay [21], 1.9 pM; in [22] it was 1.9 pM; in assay [23] it was 2.4 pM. For the same molecule, the Measured Human PlGF-1 in assay [24] worked out at 1.2 pM; in assay [25] it was 7.8 pM; in assay [26], 15.6 pM; in [27] it was 9.2 pM; in assay [28], 3.1 pM; in assay [29] it was 3.3 pM. Further, in [30], the Measured Human PlGF-1 came to 6.7 pM. In addition, the percent change in measured PlGF-1 vs. no sFlt-1 was -61% in assay [4]; -58% in [7]; -70% in [9]; -72% in assay [18]; -72% in [19]; -65% in assay [23]. The percent change in measured PlGF-1 vs. no sFlt-1 in assay [29] is -76%. Besides, the molar excess of sFlt-1 for 90% maximum inhibition in [5] came out at 40 fold. The percent change in measured PlGF-1 was -63% in assay [6]; -65% in [8]; -56% in assay [10]; -36% in assay [12]; -70% in [14]; -80% in assay [16]. For the same molecule, the percent change in measured PlGF-1 is -77% in [20], -72% in [22] and -49% in assay [30]. The molecule also came in with a % inhibition of the human PlGF-1 assay in assay [11] of 90%. The values for the percent change in measured PlGF-1 versus no sFlt-1 in assay [13], in [25] and in assay [26] were -66%, -81% and -42%, respectively. Also, the percent change in measured PlGF-1 vs. without sFlt-1 in assay [15] was -78%; in assay [21], -72%; in assay [27] it was -77%. For the same molecule, the percent change in measured PlGF-1 versus without sFlt-1 was -64% in assay [17] and -67% in [24]. Besides, the percentage of inhibition in assay [28] is -55%.

B3: anti-human PlGF-1 monoclonal antibody from clone 1-255-189 (antibody, V domains shown)
VH: QVHLQQSGAELMKPGASVKISCKATGYTFSSYWIEWVKQRPGHGLEWIGEILPGSVSNNFNEKFKDKATLTADPSSNTAYIQVSSLTSEDSAVYYCARSTGFYYGGNYFDHWGQGTTLAVSS
VL: DVVMTQTPLSLPVSPGDQASISCRSSQSLVHSNGHTYLHWYLQKPGQSPKLLIYKVSNRFSGVPDRVSGSGSGTDFTLKISRVEAEDLGVYFCSQSTHVPPTFGGGTKLEIKR
For the molecule B3, the EIA signal relative to background (fold over background) in assay [1] was above 3; in assay [2], 3; in [3] it was above 3.
